Measurements taken from patent publication US20190031733A1.

Target: Pmel-TCR (mouse)
Experiment: flow cytometry, APC-tetramer staining of FACS-sorted 293TREx-CD3-Pmel-TCR cells

APC-streptavidin tetramer of H-2D^b mouse MHC class I molecules loaded with the human gp100 peptide …, sequence (P01899 25-362): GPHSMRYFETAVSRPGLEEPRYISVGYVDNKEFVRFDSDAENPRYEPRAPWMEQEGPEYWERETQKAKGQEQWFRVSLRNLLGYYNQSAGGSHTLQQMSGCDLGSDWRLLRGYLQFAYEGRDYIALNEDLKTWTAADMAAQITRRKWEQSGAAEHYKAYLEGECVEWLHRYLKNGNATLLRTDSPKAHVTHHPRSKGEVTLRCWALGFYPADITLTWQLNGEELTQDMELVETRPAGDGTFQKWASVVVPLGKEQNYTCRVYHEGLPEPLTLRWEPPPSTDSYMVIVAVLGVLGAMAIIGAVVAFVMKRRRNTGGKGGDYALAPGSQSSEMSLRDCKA
Pmel-TCR (mouse), sequence (TCR alpha, as listed by the source, form in doubt, chain 1 of 2): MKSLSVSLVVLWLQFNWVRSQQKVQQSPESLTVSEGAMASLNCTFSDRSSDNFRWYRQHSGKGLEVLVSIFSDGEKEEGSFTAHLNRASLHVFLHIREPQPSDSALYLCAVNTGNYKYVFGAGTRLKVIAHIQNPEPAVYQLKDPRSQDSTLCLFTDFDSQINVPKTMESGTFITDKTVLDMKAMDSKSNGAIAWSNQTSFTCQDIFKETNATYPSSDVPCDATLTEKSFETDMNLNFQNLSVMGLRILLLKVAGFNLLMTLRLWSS
Pmel-TCR (mouse), sequence (TCR beta, as listed by the source, form in doubt, chain 2 of 2): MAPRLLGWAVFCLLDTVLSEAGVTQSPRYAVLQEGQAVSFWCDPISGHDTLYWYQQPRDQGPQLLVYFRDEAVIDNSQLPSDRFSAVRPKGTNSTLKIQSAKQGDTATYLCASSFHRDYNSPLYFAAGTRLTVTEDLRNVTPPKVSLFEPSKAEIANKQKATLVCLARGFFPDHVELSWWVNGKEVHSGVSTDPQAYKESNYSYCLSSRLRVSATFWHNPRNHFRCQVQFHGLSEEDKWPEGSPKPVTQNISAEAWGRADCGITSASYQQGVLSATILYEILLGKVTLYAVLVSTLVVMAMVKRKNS

Work on “APC-streptavidin tetramer of H-2D^b mouse MHC class I molecules loaded with the human gp100 peptide … (from UniProt P01899 25-362) (peptide-MHC)” yielded a percent of cells stained with the tetramers of 81.5%.
